Assay results: patent publication US20180312587A1 (ADURO BIOTECH HOLDINGS EUROPE B V, published 2018)
Like-named read-outs stand apart in the source and are kept apart here. Blank lines part the entries; values can stand above or below the binder they belong to.

Key:
human SIRPγ = target: T1, human SIRPγ (human, UniProt Q9P1W8 29-387); test: CELISA, CHO-K1 transfectants; average of two experiments
T1 construct: on transfected CHO-K1 cells; also called hSIRPγ
Protocol: (§1) The binding specificity of antibodies hSIRPα.40A and hSIRPα.50A to hSIRPα were compared in a CELISA format. In short, CHO-K1 cells were transiently transfected with hSIRPαV1, hSIRPαV2, hSIRPβ1, hSIRPβL, and hSIRPγ cDNAs. Subsequently, hSIRPα binding was assessed by CELISA using CHO-K1.hSIRPαV1, CHO-K1.hSIRPαV2, CHO-K1.hSIRPβ1, CHO-K1.hSIRPβL, and CHO-K1.hSIRPγ cells. Detection of bound antibody was done with goat-anti-mouse IgG-HRP (Southern Biotech).

human SIRPα variant 2 [1] = target: T2, human SIRPα variant 2 (human, UniProt P78324 31-504); test: as above
T2 construct: full length ORF on transfected CHO-K1 cells; also called hSIRPαV2; SIRPαV2
Protocol: as §1

human SIRPα variant 1 [2] = target: T3, human SIRPα variant 1 (human, UniProt P78324 31-504); test: as above
T3 construct: full length ORF on transfected CHO-K1 or HEK293 cells; entry includes the signal peptide; also called hSIRPαV1; SIRPαV1
Protocol: as §1

human SIRPα variant 1 [3] = target: T3, human SIRPα variant 1; test: flow cytometry, blockade of DyLight488-hCD47/Fc binding to U-937 cells
Summary of the method: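 THP-1 or U-937 monocyte cells were placed in 96-well round-bottom plates and incubated at 4 °C for 45 minutes in PBS/1% BSA containing FcR Blocking Reagent and a dilution series of anti-SIRPα antibody. After a further wash, cells were resuspended with 0.1 μg/mL DAPI, read by flow cytometry and analyzed in FlowJo. IC50 is defined as the antibody concentration that gives half-maximal inhibition of CD47/Fc binding.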

human SIRPα variant 2 [4] = target: T2, human SIRPα variant 2; test: flow cytometry, blockade of DyLight488-hCD47/Fc binding to THP-1 cells
Protocol: (§2) For this purpose, THP-1 (ATCC TIB-202) and U-937 (ATCC CRL-1593.2) monocyte cell lines were used as the source of hSIRPα in the assay. THP-1 and U-937 cells were seeded in 96-well round bottomed tissue culture plates and incubated for 45 minutes with FcR Blocking Reagent (Miltenyi Biotec) and hSIRPα.50A antibody (200 μg/mL and dilutions thereof) in PBS/1% BSA at 4° C. […] After this labeling procedure, cells were washed two times, resuspended in PBS/1% BSA containing 0.1 μg/mL DAPI (BioLegend), and analysed by flow cytometry on the FACSCanto II (BD Biosciences). Data were processed and analysed with FlowJo V10 software (FlowJo, LLC).
As depicted in FIG. 4 and the following Table 11, binding of recombinant hCD47 fused to an Fc domain of human IgG1 was monitored in the presence of increasing amounts of the hSIRPα.50A antibody. Antibody hSIRPα.50A blocked the hSIRPα/hCD47 interaction, using the flow cytometry-based method described above. […] IC50 values represent the concentration at which half of the inhibition is observed.

human SIRPα variant 2 [5] = target: T2, human SIRPα variant 2; test: as above; remark: listed apart in the source
Protocol: as §2, with “hCD47 blockade for the KWAR23, clone 18D5, and hSIRPα.40A antibodies was assessed by flow cytometry. For” for “For”, “indicated anti-hSIRPα antibodies (20” for “hSIRPα.50A antibody (200”, “FACSVerse” for “FACSCanto II”, “LLC) and plotted using GraphPad Prism 6 (GraphPad Software, Inc.). Binding of recombinant hCD47 fused to an Fc domain of human IgG1 was monitored in the presence of increasing amounts of the anti-hSIRPα antibodies. […] IC50 values represent the concentration at which half of the inhibition is observed.” for “LLC).”

human SIRPα variant 1 [6] = target: T3, human SIRPα variant 1; test: flow cytometry, CHO-K1.hSIRPαV1 stable cells
Protocol: Binding of the parental and humanized antibodies to hSIRPα was assessed by flow cytometry using the CHO-K1.hSIRPαV1 stable cell line. CHO-K1.hSIRPαV1 cells were seeded in 96-well round bottomed tissue culture plates and incubated for 40 minutes with the humanized hSIRPα.40A antibody variants (20 μg/mL and dilutions thereof) in PBS/1% BSA at 4° C. […] After this labeling procedure, cells were washed two times, resuspended in PBS/1% BSA, containing 0.1 μg/mL DAPI (BioLegend), and analysed by flow cytometry on the FACSVerse (BD Biosciences). Data were processed and analysed with FlowJo V10 software (FlowJo, LLC).

human SIRPβ1 = target: T4, human SIRPβ1 (human, UniProt O00241 30-398); test: CELISA, CHO-K1 transfectants; average of two experiments
T4 construct: also called hSIRPβ1
Protocol: The binding specificity of antibody hSIRPα.50A to hSIRPα was compared antibody KWAR23 (Canadian Patent 2939293 A1), in a CELISA format. CHO-K1 cells were transiently transfected with hSIRPαV1, hSIRPαV2, hSIRPβ1, and hSIRPγ (GenBank accession: NM_018556.3) (SEQ ID NO: 39) cDNAs. Subsequently, hSIRPα binding was assessed by CELISA using CHO-K1.hSIRPαV1, CHO-K1.hSIRPαV2, CHO-K1.hSIRPβ1, and CHO-K1.hSIRPγ cells. Detection of bound antibody was performed with goat-anti-mouse IgG-HRP (Southern Biotech) for mouse antibodies including hSIRPα.50A and control antibodies or, alternatively, with goat-anti-human IgG-HRP conjugate (Jackson Immuno Research) for the KWAR23 antibody. KWAR23 (SEQ ID NO: 130; SEQ ID NO: 131) was expressed as a chimeric human IgG4 kappa antibody in CHO cells. As shown in FIG. 2 and the following Table 9, KWAR23 antibody cross-reacts with all members of the SIRP receptor family tested: it binds to hSIRPαV1, hSIRPαV2, hSIRPβ1, and hSIRPγ.

T2 sequence (P78324 other isoform, or with tags, fused parts or gaps mutant limits assumed): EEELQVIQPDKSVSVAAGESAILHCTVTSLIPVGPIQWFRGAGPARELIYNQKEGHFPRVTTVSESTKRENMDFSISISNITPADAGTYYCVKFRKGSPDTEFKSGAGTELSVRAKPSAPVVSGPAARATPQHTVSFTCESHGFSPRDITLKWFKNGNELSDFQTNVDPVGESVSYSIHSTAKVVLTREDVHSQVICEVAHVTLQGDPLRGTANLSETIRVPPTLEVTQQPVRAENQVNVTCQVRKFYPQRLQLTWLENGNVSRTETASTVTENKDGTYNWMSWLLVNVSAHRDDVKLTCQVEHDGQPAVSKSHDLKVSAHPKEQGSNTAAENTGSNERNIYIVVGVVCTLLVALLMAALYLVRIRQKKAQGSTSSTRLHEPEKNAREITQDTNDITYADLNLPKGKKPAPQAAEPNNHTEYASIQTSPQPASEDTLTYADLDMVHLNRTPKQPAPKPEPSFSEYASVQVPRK
T3 sequence (P78324 31-504 limits assumed, change not shown): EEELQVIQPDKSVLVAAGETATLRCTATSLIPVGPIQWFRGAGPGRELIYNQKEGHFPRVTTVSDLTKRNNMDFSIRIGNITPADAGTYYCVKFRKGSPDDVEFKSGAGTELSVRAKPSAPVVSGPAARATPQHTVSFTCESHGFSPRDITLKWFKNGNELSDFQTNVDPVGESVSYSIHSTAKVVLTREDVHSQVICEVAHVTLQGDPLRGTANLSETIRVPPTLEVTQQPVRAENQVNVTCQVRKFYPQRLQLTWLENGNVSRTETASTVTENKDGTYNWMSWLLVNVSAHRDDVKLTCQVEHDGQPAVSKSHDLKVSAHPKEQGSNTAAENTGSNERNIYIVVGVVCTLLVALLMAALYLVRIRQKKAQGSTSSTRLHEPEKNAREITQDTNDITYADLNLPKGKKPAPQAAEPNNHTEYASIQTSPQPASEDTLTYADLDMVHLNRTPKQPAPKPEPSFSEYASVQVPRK
T1 sequence (Q9P1W8 29-387 limits assumed): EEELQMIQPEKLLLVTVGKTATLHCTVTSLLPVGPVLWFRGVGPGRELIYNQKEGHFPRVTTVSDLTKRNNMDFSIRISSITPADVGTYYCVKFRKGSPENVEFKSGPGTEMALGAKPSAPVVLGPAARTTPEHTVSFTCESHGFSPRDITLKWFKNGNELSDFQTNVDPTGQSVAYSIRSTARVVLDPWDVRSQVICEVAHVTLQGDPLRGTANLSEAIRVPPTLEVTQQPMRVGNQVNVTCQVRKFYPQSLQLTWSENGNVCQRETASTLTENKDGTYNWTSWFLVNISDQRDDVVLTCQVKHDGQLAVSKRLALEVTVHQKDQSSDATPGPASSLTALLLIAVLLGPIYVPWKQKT
T4 sequence (O00241 30-398 limits assumed): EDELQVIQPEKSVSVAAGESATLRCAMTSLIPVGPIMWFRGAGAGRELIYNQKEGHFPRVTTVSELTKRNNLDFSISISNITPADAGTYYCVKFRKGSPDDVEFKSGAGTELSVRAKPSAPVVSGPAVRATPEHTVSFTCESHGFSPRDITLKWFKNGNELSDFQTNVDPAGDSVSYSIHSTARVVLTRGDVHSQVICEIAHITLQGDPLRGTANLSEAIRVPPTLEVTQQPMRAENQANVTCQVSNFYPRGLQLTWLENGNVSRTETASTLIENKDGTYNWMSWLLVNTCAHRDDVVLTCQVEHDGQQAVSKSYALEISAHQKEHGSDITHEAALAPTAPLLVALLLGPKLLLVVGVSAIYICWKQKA

- EC50 (human SIRPγ): 1.99 nM
- EC50 (human SIRPα variant 2 [1]): 1.16 nM
- EC50 (human SIRPα variant 1 [2]): 1.43 nM
- IC50 (human SIRPα variant 1 [3]): 19.5 nM
- IC50 (human SIRPα variant 2 [4]): 4.61 nM
B1: hSIRPα.50A (antibody, V domains shown)
VH: QVQLQQSGPELVKPGASVRISCKASGFTFTNYYIHWVKQRPGQGLEWIGWIYPGNVNTKYNEKFKAKATLTADKSSTTAYMQLSSLASEDSAVYFCARPTIIATDFDVWGAGTTVTVSS
VL: DIVMTQSHKFMSTSVGDRVNITCKASQGVGTAVGWYQQKPGQSPRLLIYWASTRHTGVPDRFTGSGSGTDFSLAISNVQSEDLADYFCQQYSTYPFTFGGGTNLEIK
notes: light chain constant domain not tied; also called mouse hSIRPα.50A; hSIRPα.50A.mIgG1

- EC50 (human SIRPγ): 0.099 nM
- EC50 (human SIRPα variant 2 [1]): 0.088 nM
- EC50 (human SIRPα variant 1 [2]): 0.109 nM
- IC50 (human SIRPα variant 2 [5]): 0.548 nM
- EC50 (human SIRPα variant 1 [6]): 0.022 nM
- IC50 (human SIRPα variant 1 [3]): 1.34 nM
B2: hSIRPα.40A (antibody, mouse IgG1, kappa, V domains shown)
VH: EVQFQQSGTVLARPGTSVKMSCKASGSTFTSYWMHWVKQGPGQGLQWIGAIYPVNNDTTYNQKFKGKAELTVVTSTSTAYMEVSSLTNEDSAVYYCTRSFYYSLDAAWFVYWGQGTLVTVSA
VL: DIQMTQSPSSLSASLGERVSLTCRASQDIGSRLNWLQQEPDGTIKRLIYATSSLDSGVPKRFSGSRSGSDYSLTISGLESEDFVDYYCLQYASSPFTFGGGTKLEINR
notes: mouse antibody, full chains without signal peptide; also called mouse hSIRPα.40A

- IC50 (human SIRPα variant 2 [5]): 0.132 nM
- EC50 (human SIRPβ1): 0.161 nM
B3: KWAR23 (antibody, V domains shown)
VH: EVQLQQSGAELVKPGASVKLSCTASGFNIKDYYIHWVQQRTEQGLEWIGRIDPEDGETKYAPKFQDKATITADTSSNTAYLHLSSLTSEDTAVYYCARWGAYWGQGTLVTVSS
VL: QIVLTQSPAIMSASPGEKVTLTCSASSSVSSSYLYWYQQKPGSSPKLWIYSTSNLASGVPARFSGSGSGTSYSLTISSMEAEDAASYFCHQWSSYPRTFGAGTKLELK
